Key:
[1] = biological target: T1, Fructose Bisphosphatase (Spinacia oleracea, UniProt P22418); experiment: Activation of chloroplast fructose bisphosphatase by thioredoxin-reduced proteins; format: biochemical, spinach; settings: standard DTT assay, 1 μg E. coli thioredoxin, 20 μg protein; corrected for thioredoxin alone
T1 construct: fructose-1,6-bisphosphatase (FBPase) were purified from leaves of corn (Jacquot, J.-P. et al. (1981), Plant Physiol. 68:300-304) and spinach; from tissue; host or cells: spinach leaves
T1 sequence (P22418 58-415): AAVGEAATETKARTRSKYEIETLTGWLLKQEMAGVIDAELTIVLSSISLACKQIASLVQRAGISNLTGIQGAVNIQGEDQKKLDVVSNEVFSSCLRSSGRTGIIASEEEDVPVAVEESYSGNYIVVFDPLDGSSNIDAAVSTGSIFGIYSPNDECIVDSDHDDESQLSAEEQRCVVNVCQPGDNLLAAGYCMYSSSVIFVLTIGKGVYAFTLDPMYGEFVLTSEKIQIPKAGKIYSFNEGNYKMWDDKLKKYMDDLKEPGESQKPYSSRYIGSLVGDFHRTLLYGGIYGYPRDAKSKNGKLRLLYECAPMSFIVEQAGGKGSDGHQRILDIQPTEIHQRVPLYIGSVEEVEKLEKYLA
Procedure: The NADP-MDH, FBPase, NTR and Thioredoxin h assay methods were according to Florencio, F. J. et al. (1988), Arch. Biochem. Biophys. 266:496-507 with slight modifications as indicated. For enzyme activation assays, the preincubation time was 20 min unless specified otherwise.
The capability to replace a specific thioredoxin in the activation of chloroplast enzymes is one test for the ability of thiol groups of a given protein to undergo reversible redox change. […] A case in point is purothionin which, when reduced by thioredoxin h activates chloroplast FBPase (Wada, K. et al. (1981), FEBS Lett. 124:237-240, and Johnson, T. C. et al. (1987), Plant Physiol. 85:446-451). The FBPase, whose physiological activator is thioredoxin f, is unaffected by thioredoxin h. In this Example, the ability of cystine-rich proteins to activate FBPase as well as NADP-MDH was tested as set forth above. […]
The Wada et al., 1981 protocol was used for assaying NADP-malate dehydrogenase and fructose 1,6 bisphosphatase in the presence of thioredoxin and 2S protein. […] The 2S protein was monitored during purification by mBBr/SDS-polyacrylamide gel electrophoresis following its reduction by dithiothreitol and E. coli thioredoxin (Crawford et al., 1989; Kobrehel et al., 1991).

[2] = system: wheat protease preparation; experiment: Proteolysis by a plant protease preparation (SDS-PAGE, laser densitometer); format: biochemical
Procedure: The endosperm (10-15 g fresh weight) isolated from 5-day germinated wheat seeds by excising the roots and shoots was extracted for 30 minutes at 4° C. with 5 volumes of 200 mM sodium acetate, pH 4.6, containing 10 mM β-mercaptoenthanol. The homogenate was centrifuged for 20 minutes at 48,000 g, 4° C. The pellet was discarded and the supernatant fluid was fractionated with 30-70% ammonium sulfate. This fraction, which represented the protease preparation, was resuspended in a minimum volume of 20 mM sodium acetate, pH 4.6, containing 10 mM β-mercaptoenthanol, and dialyzed against this buffer overnight at 4° C.
Unless indicated, the reduction of the trypsin inhibitors (0.4 mg/ml) was carried out in 0.1 ml of 20 mM sodium phosphate buffer, pH 7.9 containing 10 mM EDTA at 30° C. for 2 hours. […] Proteolytic products were analyzed by electrophoresis with 12% or 16% SDS polyacrylamide slab gels (Laemmli, 1970). […]
To test whether the reduced forms of KTI and BBTI show decreased stability to proteases other than trypsin, both the reduced and oxidized forms of KTI and BBTI were incubated with a wheat protease preparation or with subtilisin and the proteolytic products were analyzed by SDS-PAGE. The extent of proteolysis was determined by measuring the abundance of intact protein on SDS gels by laser densitometer. […]

B1: Soybean Kunitz: Kunitz soybean trypsin inhibitor (protein, UniProt P01070 25-205, looked up)
Trypsin inhibitor A: DFVLDNEGNPLENGGTYYILSDITAFGGIRAAPTGNERCPLTVVQSRNELDKGIGTIISSPYRIRFIAEGHPLSLKFDSFAVIMLCVGIPTEWSVVEDLPEGPAVKIGENKDAMDGWFRLERVSDDEFNNYKLVFCPQQAEDDKCGDIGISIDHDDGTRRLVVSKNKPLVVQFQKLDKESL
- ACTIVITY, FBPase [1]: 0 nkat/mg
- degraded by wheat protease preparation [2]: about 80%
